The source of these data is PMC7018016, “Superstructure formation by RodZ hexamers of Shigella sonnei maintains the rod shape of bacilli” (PLoS ONE, 2020).

Where “and” joins values, the source holds several entries; their conditions need not be identical. Equal values may be shown once.

Data set [1] deals with RodZ_(ΔKRRKKR) (S. sonnei) (UniProt Q3YZ36). Description: native gel or EMSA; 3%–12% BN-PAGE (NativePAGE Novex Bis-Tris), CBB without SDS, loading buffer with mild detergents; 5 μl of each purified protein. Background: Mobility shift assays separate free from complexed probe on a gel.
Data set [2] concerns the molecule itself. The data set is described as above.
Data set [3] deals with the molecule itself. Description: cross-linking + other: High-Mass MALDI-TOF MS; serial dilutions (1 mg/ml–19.53 μg/ml) in PBS, treated with K200 Stabilizer crosslinker, CovalX HM3 module, 0–1500 kDa; Complex Tracker software corrects for the mass of the crosslinker; monomer measured without crosslinker.

As to “RodZ_(ΔKRRKKR) (from UniProt Q3YZ36 1-337) (natural protein)”, in data set [1], the stoichiometry N was determined as 6.

B1: RodZwt (wild-type RodZ of Shigella sonnei, his6-tagged) (natural protein, S. sonnei, UniProt Q3YZ36 1-337, looked up)
chain: MNTEATHDQNEALTTGARLRNAREQLGLSQQAVAERLCLKVSTVRDIEEDKAPADLASTFLRGYIRSYARLVHIPEEELLPGLEKQAPLRAAKVAPMQSFSLGKRRKKRDGWLMTFTWLVLFVVIGLSGAWWWQDHKAQQEEITTMADQSSAELSSNSEQGQSVPLNTSTTTDPATTSTPPASVDTTATNTQTPAVTAPAPAVDPQQNAVVSPSQANVDTAATPVPTAATTPDGAAPLPTDQAGVTTPAADPNALVMNFTADCWLEVTDATGKKLFSGMQRKDGNLNLTGQAPYKLKIGAPAAVQIQYQGKPVDLSRFIRTNQVARLTLNAEQSPAQ
notes: RodZ of Shigella sonnei MS390, whole rodZ amplified with primers from the start codon to the last codon (337 residues); Cloned NdeI-XhoI into pET22b; predicted mass 36.83 kDa; The XhoI site of pET22b probably adds Leu-Glu before the his6 tag (surmise); also called his6-tagged RodZ; purified RodZwt; not shown: His6, C-terminal, kept
For the molecule B1, the “stoichiometry N” value in data set [2] was approximately 6; in data set [3], 6.36 times and 6 times.

B2: RodZ_(50–337) (domain or fragment)
chain: DKAPADLASTFLRGYIRSYARLVHIPEEELLPGLEKQAPLRAAKVAPMQSFSLGKRRKKRDGWLMTFTWLVLFVVIGLSGAWWWQDHKAQQEEITTMADQSSAELSSNSEQGQSVPLNTSTTTDPATTSTPPASVDTTATNTQTPAVTAPAPAVDPQQNAVVSPSQANVDTAATPVPTAATTPDGAAPLPTDQAGVTTPAADPNALVMNFTADCWLEVTDATGKKLFSGMQRKDGNLNLTGQAPYKLKIGAPAAVQIQYQGKPVDLSRFIRTNQVARLTLNAEQSPAQ
notes: RodZ of Shigella sonnei, residues 50-337; The forward primer adds a start methionine before D50; calculated mass 31.64 kDa; also called N-terminal deletion RodZ_(50-337); not shown: His6, C-terminal, kept
Consider B2, for which the “stoichiometry N” value in data set [2] is approximately 2; in data set [3] it was 6.05 times and 6.22 times and 6.03 times.

B3: RodZ_(1–142) (domain or fragment)
chain: MNTEATHDQNEALTTGARLRNAREQLGLSQQAVAERLCLKVSTVRDIEEDKAPADLASTFLRGYIRSYARLVHIPEEELLPGLEKQAPLRAAKVAPMQSFSLGKRRKKRDGWLMTFTWLVLFVVIGLSGAWWWQDHKAQQEE
notes: RodZ of Shigella sonnei, residues 1-142; not shown: His6, C-terminal, kept
B3: the binding result in data set [2] is on record as “binds”.

For orientation: stoichiometry N means the number of molecules, sites or subunits per partner or assembly.
